assay: soluble on expression in E. coli; label from the status in PepcDB or PDB records

Row | Sequence | soluble on expression in E. coli
1 | SNQECPDYLRELIRKTKTLTEKPFGIGVVLAFPHDLNIKTILEEKVAVLQLYWGDCSQELVDDAHFAGVKVIPQVGNVEEARKAVAVGVDAIIVQGREAGGHVIGKDGLFSLLPRVVDLVGERDIPVIAAGGIVDGRGYVAALSLGAQGVCLGTRFVATHESYAHPIYKRKLIEYEKTEYTDVFGRARWPGAPQRVLETPFFDDWRSLPAHENEVNQPIIGRSTIHGVEKEIRRFSGTVPNMTTTGDLESMAMYAGQSVGLIKEILPAGEVVKSLVEEAQALILQKFNNATTT | soluble
2 | MLPRLGGFLAGFSSTISSFLPKTTASTLFTHQSSQFSTSFPAWRNNFLQFIHYRNGPPKRRARSKDKSAISGYSHYKGIVLKTVIRHPKKPNSGNRKCAIVRLSTGAEVCAYIPNVGHNLQEHSQVLVKGGRRRDLISVKANIVRGKYDCAPAGGRK | not soluble
3 | HGGEAHMVPMDKTLKEFGADVQWDDYAQLFTLIKDGAYVKVKPGAQTAIVNGQPLALQVPVVMKDNKAWVSDTFINDVFQSGLDQTFQVEKRPHPLNALTADEIKQAVEIVKASADFKPNTRFTEISLLPPDKEAVWAFALENKPVDQPRKADVIMLDGKHIIEAVVDLQNNKLLSWQPIKDAHGMVLLDDFASVQNIINNSEEFAAAVKKRGITDAKKVITTPLTVGYFDGKDGLKQDARLLKVISYLDVGDGNYWAHPIENLVAVVDLEQKKIVKIEEGPVVPVPMTARPFDGRDRVAPAVKPMQIIEPEGKNYTITGDMIHWRNWDFHLSMNSRVGPMISTVTYNDNGTKRKVMYEGSLGGMIVPYGDPDIGWYFKAYLDSGDYGMGTLTSPIARGKDAPSNAVLLNETIADYTGVPMEIPRAIAVFERYAGPEYKHQEMGQPNVSTERRELVVRWISTVGNYDYIFDWIFHENGTIGIDAGATGIEAVKGVKAKTMHDETAKDDTRYGTLIDHNIVGTTHQHIYNFRLDLDVDGENNSLVAMDPVVKPNTAGGPRTSTMQVNQYNIGNEQDAAQKFDPGTIRLLSNPNKENRMGNPVSYQIIPYAGGTHPVAKGAQFAPDEWIYHRLSFMDKQLWVTRYHPGERFPEGKYPNRSTHDTGLGQYSKDNESLDNTDAVVWMTTGTTHVARAEEWPIMPTEWVHTLLKPWNFFDETPTLGALKKDK | soluble
4 | MHNFIYITAPSLEEAERIAKRLLEKKLAACVNIFPIKSFFWWEGKIEAATEFAMIVKTRSEKFAEVRDEVKAMHSYTTPCICAIPIERGLKEFLDWIDETVE | soluble
5 | MAMKQWIAALLLMLIPGVQAAKPQKVTLMVDDVPVAQVLQALAEQEKLNLVVSPDVSGTVSLHLTDVPWKQALQTVVKSAGLITRQEGNILSVHSIAWQNDNIARQEAEQARAQANLPLENRSITLQYADAGELAKAGEKLLSAKGSMTVDKRTNRLLLRDNKTALSALEQWVAQMDLPVGQVELSAHIVTINEKSLRELGVKWTLADAQHAGGVGQVTTLGSDLSVATATTHVGFNIGRINGRLLDLELSALEQKQQLDIIASPRLLASHLQPASIKQESEIPYQVSSGESGATSVEFKEAVLGMEVTPTVLQKGRIRLKLHISQNVPGQVLQQADGEVLAIDKQEIETQVEVKSGETLALGGIFTRKNKSGQDSVPLLGDIPWFGQLFRHDGKEDERRELVVFITPRLVSSELEHHHHHH | soluble
6 | MENQLTKSVEERTFQYQDSLPSLPVPALEESLKKYLESVKPFANEDEYKKTEEIVQKFQEGAGKRLHQKLLERARGKRNWLEEWWLNVAYLDVRIPSQLNVNFVGPCPHFEHYWPAREGTQLERGSMMLWHNLNYWQLLRREKLPVHKSGNTPLDMNQFRMLFSTCKVPGITRDSIMNYFKTESEGHCPTHIAVLCRGRAFVFDVLHEGCLITPPELLRQLTYIHKKCSNEPVGPSIAALTSEERTRWAKAREYLISLDPENLTLLEKIQTSLFVYSIEDSSPHATPEEYSQVFEMLLGGDPSVRWGDKSYNLISFANGIFGCCCDHAPYDAMVMVNIAHYVDERVLETEGRWKGSEKVRDIPLPEELVFTVDEKILNDVSQAKAQHLKAASDLQIAASTFTSFGKKLTKEEALHPDTFIQLALQLAYYRLHGRPGCCYETAMTRYFYHGRTETVRSCTVEAVRWCQSMQDPSASLLERQQKMLEAFAKHNKMMKDCSHGKGFDRHLLGLLLIAKEEGLPVPELFEDPLFSRSGGGGNFVLSTSLVGYLRVQGVVVPMVHNGYGFFYHIRDDRFVVACSSWRSCPETDAEKLVQMIFHAFHDMIQLMNTAHL | soluble
7 | MQPMTARFDLFVVGSGFFGLTIAERVATQLDKRVLVLERRPHIGGNAYSEAEPQTGIEVHKYGAHLFHTSNKRVWDYVRQFTDFTDYRHRVFAMHNGQAYQFPMGLGLVSQFFGKYFTPEQARQLIAEQAAEIDTADAQNLEEKAISLIGRPLYEAFVKGYTAKQWQTDPKELPAANITRLPVRYTFDNRYFSDTYEGLPTDGYTAWLQNMAADHRIEVRLNTDWFDVRGQLRPGSPAAPVVYTGPLDRYFDYAEGRLGWRTLDFEVEVLPIGDFQGTAVMNYNDLDVPYTRIHEFRHFHPERDYPTDKTVIMREYSRFAEDDDEPYYPINTEADRALLATYRARAKSETASSKVLFGGRLGTYQYLDMHMAIASALNMYDNVLAPHLRDGVPLLQDGA | soluble
8 | MAGNFDSEERSSWYWGRLSRQEAVALLQGQRHGVFLVRDSSTSPGDYVLSVSENSRVSHYIINSSGPRPPVPPSPAQPPPGVSPSRLRIGDQEFDSLPALLEFYKIHYLDTTTLIEPVSRSRQGSGVILRQEEAEYVRALFDFNGNDEEDLPFKKGDILRIRDKPEEQWWNAEDSEGKRGMIPVPYVEKYRPASASVSALIGGNQEGSHPQPLGGPEPGPYAQPSVNTPLPNLQNGPIYARVIQKRVPNAYDKTALALEVGELVKVTKINVSGQWEGECNGKRGHFPFTHVRLLDQQNPEEDFS | soluble
9 | MMGSAYWEKLVPQINPPKVPSAVEGLGIPASVVENLVLKHLAAYPKCDLVELTQRLCVVSNIVELALAQLRKRSWVEVYQPASDKLSHSYSNVRYSLTEFGLAEADIAYRKDPYIGPVPVSLEDYWTVVEGQDLRKNPIMRADVERALSDVFGSEHLIPVLGPAINSGRAMLLYGHAGTGKSYVAAR | not soluble
10 | MGSDKIHHHHHHMNILNIYNEFDINNFDLSVDHYGSEKCDRGYSFGPTIRDNYVIHFILEGKGKLTINQHTLDLAAGDIFLLPKDISTFYQADLQMPWSYIWIGFSGSKAENILKQSSLFKRFYCHSGRSSKLFSQMMTIIQFANTPLTSVNELLMVGELYKLLAALIEEFPLSHLEESNSSTKAYVNQVKKIIHSQYGSSLRVNDIAKKLNLSRSYLYKIFRKSTNLSIKEYILQVRMKRSQYLLENPKLSIAEISNSVGFSDSLAFSKAFKNYFGKSPSKFRKEIQNN | not soluble
11 | MAWWKAWIEQEGVTVASSSHFNPDPDAETLYKAMKGIGTNEQAIIDVLTKRSNTQRQQIAKSFKAQFGKDLTETLKSELSGKFERLIVALMYPPYRYEAKELHDAMKGLGTKEGVIIEILASRTKNQLREIMKAYEEDYGSSLEEDIQADTSGYLERILVCLLQGSRDDVSSFVDPALALQDAQDLYAAGEKIRGTDEMKFITILCTRSATHLLRVFEEYEKIANKSIEDSIKSETHGSLEEAMLTVVKCTQNLHSYFAERLYYAMKGAGTRDGTLIRNIVSRSEIDLNLIKCHFKKMYGKTLSSMIMEDTSGDYKNALLSLVGSDP | soluble
12 | MLRIGLTGGIGAGKSLLSTTFSQCGGIVVDGDVLAREVVQPGTEGLASLVDAFGRDILLADGALDRQALAAKAFRDDESRGVLNGIVHPLVARRRSEIIAAVSGDAVVVEDIPLLVESGMAPLFPLVVVVHADVELRVRRLVEQRGMAEADARARIAAQASDQQRRAVADVWLDNSGSPEDLVRRARDVWNTRVQPFAHNLAQRQIARAPARLVPADPSWPDQARRIVNRLKIACGHKALRVDHIGSTAVSGFPDFLAKDVIDIQVTVESLDVADELAEPLLAAGYPRLEHITQDTEKTDARSTVGRYDHTDSAALWHKRVHASADPGRPTNVHLRVHGWPNQQFALLFVDWLAANPGAREDYLTVKCDADRRADGELARYVTAKEPWFLDAYQRAWEWADAVHWRP | soluble
13 | SNAMLRYGDTEICIDPSESVLHLLGKKYTMLIISVLGNGSTRQNFNDIRSSIPGISSTILSRRIKDLIDSGLVERRSGQITTYALTEKGMNVRNSLMPLLQYISVLDRNGD | soluble
14 | AIAPLGEEKNGKCDGSIYVNNPHLDSMTDDILYHFNLGTSTHDLPKMFGDVKFVCVGGSPWRMKSFTEYIAKELGLVDPNAEYPNICAGTDRYAMYKVGPVLSVSHGMGIPSISIMLHELIKLLYHARCTDVTVVRIGTSGGIGLKPGTVVVTKQSVDSLFQPHLEQTILGKPVVRSTELDKELAEELLQCGKELGEFEIIIGNTMCTLDFYEGSNVFEDKCTRIAAYSFKIHVL | soluble
15 | MQKQLLLGVEAIAQAALDAGISGVYAYPGTPSTEITEHIQNSRMAKERNVHREWAANEKTAMESALGMSYAGKRALVCMKHVGMNVAADCFMNAAITGANGGMVIVAADDPSMHSSQNEQDSRVYGQFAMIPVMEPSNQQEAYDMTRLAFDLSERLGTPVMMRITTRLAHSRAGVVQTEPIGENELHLP | not soluble
16 | MSLAQAMKIAIVDDEQDMRQSISQWLALSGYDTETFASAEEALKVLGSEYPGIVISDIKMPGMDGMQFLKKLMGADSSLPVIMITGHGDVPMAVEAMRVGAFDFLEKPFNPDRMSDLAKRASNARRLTLDNRALRRELSDGGQIMKKLIGTSPVMERLREDILDLGQADGHVLIDGETGTGKTLVAHALHAVGSRAGKKFVLVSCSALEEEALAKRLFGPMIPEDAQLPAIEEARGGTLVLEDVESLSDALQAKLLSVMNQQGTPAETRIVAISNLQEAGKTSEDVLRPDLFYRLAALRLTMPPLRQRGEDILTLFTRLSEQFAEEYGCDAPQVSAQEAAQLLQAPWPGNVRQLINIAERAVLQARRGSGTIASLLMSDHEDEGHHHHHH | soluble
17 | MGSDKIHHHHHHVPDITIATERCIGCAECARDCPTGIIRMENGIPAVAPRREKRCIGCLHCVTVCPCGALSFRGVTPESCTPLKNRFPQPEALEILMKGRRSVRRFLPEAVDSALIRRTVDAAAHAPSGKNQRGLLFTVVDDPQTMNRLRHDTVEAVREALADGCSHPQTAFFQAALARWDTGTDIIFRNAPHLLWVTAPRTNTTAQADVHVALTYFELMAAACGLGTLWCGFATWAMSEIAPRIARGLGIPEAHTSGYVMLFGKPAVRYHRTAERGCDGFNRVVWPPAT | not soluble
18 | MAHHHHHHMSRHPLSRHINTSSVKLKIVKCKLFDIGEGISEVEITQWNKNEGDNVSEMETLLTVQSDKAAVDITSKYSGVLVKRYAEEKDVIKIGSYFCEIDTEDEVGEAAEEVVANEVADEADGRVDPGGPLSPAKVTQQGSKAPTVKASPGVKKKAQEYKLDVDAIGSYFSKEAITMLDVELYHQKVKSGEISNAGSDFNGEVLEEVPLKGIKLAMCKCMNDSLSIPLFHLNEKYNVQNLLSARNVIKKSVLQKDNVNVTLTSVLIKLISTVLKDFPLLNSKFDSQKNAYTIFKSHNVCVAMDTPNGLLVPNIKQVESKNVVEIQKELTSLRDKALQMKLSKSDISGGTITVSNFGVIGGTFATPIVFENQACIIGLSKIQKQLLLKNEKKELTALSDILVADVMNLTFGADHRFVDGATLAQFSKKLKEVVEGVTSLDPYAA | not soluble
19 | MQYHRIPHSSLEVSTLGLGTMTFGEQNSEADAHAQLDYAVAQGINLIDVAEMYPVPPRPETQGLTETYVGNWLAKHGSREKLIIASKVSGPSRNNDKGIRPDQALDRKNIREALHDSLKRLQTDYLDLYQVHWPQRPTNCFGKLGYSWTDSAPAVSLLDTLDALAEYQRAGKIRYIGVSNETAFGVMRYLHLADKHDLPRIVTIQNPYSLLNRSFEVGLAEVSQYEGVELLAYSCLGFGTLTGKYLNGAKPAGARNTLFSRFTRYSGEQTQKAVAAYVDIARRHGLDPAQMALAFVRRQPFVASTLLGATTMDQLKTNIESLHLELSEDVLAEIEAVHQVYTYPAP | soluble
